The results in this text go back to paper PMC10683472, “Deep Learning-Driven Library Design for the De Novo Discovery of Bioactive Thiopeptides” (ACS Central Science, 2023).

The test addresses T1, IRAK4 (Homo sapiens, UniProt Q9NWZ3).
T1 sequence (Q9NWZ3 1-460): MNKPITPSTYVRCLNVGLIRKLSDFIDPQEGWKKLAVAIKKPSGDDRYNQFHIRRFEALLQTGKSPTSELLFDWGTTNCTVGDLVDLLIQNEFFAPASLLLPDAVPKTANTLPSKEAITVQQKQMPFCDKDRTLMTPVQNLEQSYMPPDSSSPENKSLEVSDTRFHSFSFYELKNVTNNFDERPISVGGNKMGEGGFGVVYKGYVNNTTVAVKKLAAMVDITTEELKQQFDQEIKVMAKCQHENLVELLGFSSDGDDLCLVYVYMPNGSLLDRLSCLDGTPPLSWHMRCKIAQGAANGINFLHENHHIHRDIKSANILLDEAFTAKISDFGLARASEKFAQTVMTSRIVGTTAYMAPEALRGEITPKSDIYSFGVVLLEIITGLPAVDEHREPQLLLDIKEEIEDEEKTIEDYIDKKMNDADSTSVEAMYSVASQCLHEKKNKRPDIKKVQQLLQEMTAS
Description: mRNA display affinity selection against IRAK4, NGS abundance. It counts as binding. Also noted: acids 1-460; NP_057207.2) was purchased from Carna Biosciences; purchased Carna Biosciences (Kobe, Japan). The conditions noted are these: Top100 selection hits, NGS.

For the setting “IRAK4 selection pulldown (+)”, SMLFKRRIYK yielded a Library fraction of 0.211 and a Raw reads of 22521. For the same sequence, where the note is “IRAK4 selection pulldown (-)”, the Library fraction is 0.165 and the Raw reads is on record as 22079.
On the same counts, the results for TQRWNNRNWC are 0.0003, 29, 0.00014 and 19.
Consider SMKRPFITWHWT, for which, where the note is “IRAK4 selection pulldown (-)”, the Library fraction came to 9e-5 and the Raw reads is given as 12.
Under “IRAK4 selection pulldown (-)”, SMHRRYITWRWT registered a Library fraction of 0.115 and a Raw reads of 15412.
For the setting “IRAK4 selection pulldown (+)”, SVLWKRKIHN had a Library fraction of 0.0012 and a Raw reads of 125. Moreover, where the note is “IRAK4 selection pulldown (-)”, the Library fraction is given as 0.001 and the Raw reads was found to be 137.
Consider AQRWRQKCYK, for which, where the note is “IRAK4 selection pulldown (+)”, the Library fraction is on record as 0.0002 and the Raw reads came to 19.
As to SQRWRCRNYQ, the Library fraction came to 0.0011 (IRAK4 selection pulldown (+)) and 0.002 (IRAK4 selection pulldown (-)). Further, the Raw reads turned out to be 116 (IRAK4 selection pulldown (+)) and 267 (IRAK4 selection pulldown (-)).
Consider TLLWKRRIYK, for which, where the note is “IRAK4 selection pulldown (+)”, the Library fraction is 0.0019 and the Raw reads worked out at 207. In addition, for the setting “IRAK4 selection pulldown (-)”, the Library fraction worked out at 0.00132 and the Raw reads was 176.
As to SLLWKRRCYN, the Library fraction was 0.0038 (IRAK4 selection pulldown (+)) and 0.00172 (IRAK4 selection pulldown (-)). The sequence further came in with a Raw reads (IRAK4 selection pulldown (+)) of 409 and a Raw reads (IRAK4 selection pulldown (-)) of 230.
Consider AQYWKRRLWR, for which, under “IRAK4 selection pulldown (+)”, the Library fraction turned out to be 0.0001 and the Raw reads is 9.
Where the note is “IRAK4 selection pulldown (+)”, AIRWKNRNYK yielded a Library fraction of 0.0009 and a Raw reads of 95. In addition, where the note is “IRAK4 selection pulldown (-)”, the Library fraction was found to be 0.00032 and the Raw reads came out at 43.
On the same counts, the results for SVCWKRRNCH are 0.0002, 24, 0.00016 and 22.
With SMLWKRKIWG, the Library fraction runs as follows: (IRAK4 selection pulldown (+)) 0.0047; (IRAK4 selection pulldown (-)) 0.00177. Further, the Raw reads by setting is: (IRAK4 selection pulldown (+)) 498; (IRAK4 selection pulldown (-)) 237.
Consider AMLWKRRLWR, for which the Library fraction runs as follows: (IRAK4 selection pulldown (+)) 0.0005; (IRAK4 selection pulldown (-)) 0.00051. Further, the Raw reads is on record as 57 (IRAK4 selection pulldown (+)) and 68 (IRAK4 selection pulldown (-)).
Where the note is “IRAK4 selection pulldown (+)”, STYRKRRIWY registered a Library fraction of 0.0001 and a Raw reads of 14.
TQRYLSKNYK had a Library fraction (IRAK4 selection pulldown (+)) of 0.0001 and a Library fraction (IRAK4 selection pulldown (-)) of 0.00025. Moreover, the Raw reads (IRAK4 selection pulldown (+)) worked out at 12 and the Raw reads (IRAK4 selection pulldown (-)) amounted to 33.
SMRRQFITWHWT: for the setting “IRAK4 selection pulldown (-)”, the Library fraction is recorded as 9e-5 and the Raw reads turned out to be 12.
With SLLWKQRVWK, the Library fraction by setting is: (IRAK4 selection pulldown (+)) 0.005; (IRAK4 selection pulldown (-)) 0.00324. The Raw reads (IRAK4 selection pulldown (+)) amounted to 525 and the Raw reads (IRAK4 selection pulldown (-)) was 433.
With RLFWKRRRYA, the Library fraction is 0.0004 (IRAK4 selection pulldown (+)) and 0.00016 (IRAK4 selection pulldown (-)). In addition, the Raw reads (IRAK4 selection pulldown (+)) turned out to be 42 and the Raw reads (IRAK4 selection pulldown (-)) worked out at 21.
Under “IRAK4 selection pulldown (+)”, SQLYKRRIWM returned a Library fraction of 0.0001 and a Raw reads of 9.
Consider RMLWKRRMWH, for which the Library fraction runs as follows: (IRAK4 selection pulldown (+)) 0.0011; (IRAK4 selection pulldown (-)) 0.00041. The Raw reads (IRAK4 selection pulldown (+)) is 118 and the Raw reads (IRAK4 selection pulldown (-)) is reported as 55.
On the same counts, the results for TLCWKRRTWK are 0.026, 0.018, 2745 and 2408.
Where the note is “IRAK4 selection pulldown (+)”, SLRWKNRNHK returned a Library fraction of 0.0006 and a Raw reads of 62. In addition, under “IRAK4 selection pulldown (-)”, the Library fraction was determined as 0.00013 and the Raw reads is given as 17.
Take SMERKAITWLWT: where the note is “IRAK4 selection pulldown (-)”, the Library fraction is listed as 0.00019 and the Raw reads amounted to 25.
Under “IRAK4 selection pulldown (+)”, MMLWKRRMYK gave a Library fraction of 0.0001 and a Raw reads of 15.
Under “IRAK4 selection pulldown (-)”, SMKRRFITWHWT returned a Library fraction of 8e-5 and a Raw reads of 11.
For the setting “IRAK4 selection pulldown (+)”, TQRWKQKNWS came in with a Library fraction of 0.0001 and a Raw reads of 9.
Turning to SQRYKRRNYK, under “IRAK4 selection pulldown (+)”, the Library fraction is on record as 0.0009 and the Raw reads is 92. Where the note is “IRAK4 selection pulldown (-)”, this sequence yielded a Library fraction of 0.00037 and a Raw reads of 49.
As for SMERQFITWHWT, for the setting “IRAK4 selection pulldown (-)”, the Library fraction is reported as 0.00013 and the Raw reads is given as 17.
The like results for SMKRKFITWHWT were, in that order, 7e-5 and 10.
Turning to TCLWKRRIYS, for the setting “IRAK4 selection pulldown (+)”, the Library fraction is reported as 0.0001 and the Raw reads came out at 10.
On the same counts, the results for SLLWHRRIYC are 0.0002 and 19.
Take SLLWRKRIYR: under “IRAK4 selection pulldown (+)”, the Library fraction was 0.003 and the Raw reads was determined as 312. Where the note is “IRAK4 selection pulldown (-)”, this sequence registered a Library fraction of 0.00109 and a Raw reads of 146.
On the same counts, the results for TLCWRRRNYK are 0.024, 2567, 0.011 and 1518.
On to RLCYKRRNWQ, for which, under “IRAK4 selection pulldown (-)”, the Library fraction is listed as 0.00013 and the Raw reads was 17.
Turning to AQRWRRRCYH, the Library fraction is, setting by setting: (IRAK4 selection pulldown (+)) 0.0008; (IRAK4 selection pulldown (-)) 0.00051. The Raw reads is on record as 85 (IRAK4 selection pulldown (+)) and 68 (IRAK4 selection pulldown (-)).
Regarding ARLWRRRIYQ, the Library fraction reads like this: (IRAK4 selection pulldown (+)) 0.0001; (IRAK4 selection pulldown (-)) 0.00049. The Raw reads reads like this: (IRAK4 selection pulldown (+)) 11; (IRAK4 selection pulldown (-)) 66.
The like results for TMLWKRRIYR were, in that order, 0.044, 0.029, 4661 and 3881.
On to RLLWKHRLYA, for which, for the setting “IRAK4 selection pulldown (-)”, the Library fraction is 8e-5 and the Raw reads is on record as 11.
SVFWNRRIYK: under “IRAK4 selection pulldown (+)”, the Library fraction is given as 0.0006 and the Raw reads came out at 68. Where the note is “IRAK4 selection pulldown (-)”, this sequence displayed a Library fraction of 0.00016 and a Raw reads of 21.
As to RLLWRRRNYA, under “IRAK4 selection pulldown (+)”, the Library fraction was found to be 0.0009 and the Raw reads was 98. Moreover, for the setting “IRAK4 selection pulldown (-)”, the Library fraction was found to be 0.00106 and the Raw reads was found to be 142.
For the sequence TQFWKRRNYA, for the setting “IRAK4 selection pulldown (+)”, the Library fraction was found to be 0.0002 and the Raw reads came out at 26. For the setting “IRAK4 selection pulldown (-)”, this sequence registered a Library fraction of 7e-5 and a Raw reads of 10.
On the same counts, the results for TQRWRARNYK are 0.006, 624, 0.00431 and 576.
Where the note is “IRAK4 selection pulldown (+)”, SLLWKRRVYT came in with a Library fraction of 0.0002 and a Raw reads of 17. Also, under “IRAK4 selection pulldown (-)”, the Library fraction is reported as 0.0001 and the Raw reads is reported as 14.
On the same counts, the results for SLLWRRRVYK are 0.080, 8519, 0.046 and 6174.
On the same counts, the results for CQRWKRRCYM are 0.0007, 76, 0.00053 and 71.
The like results for SVRWKHRIYK were, in that order, 0.0003, 29, 0.00012 and 16.
For the setting “IRAK4 selection pulldown (-)”, SMKRQLITWHWT gave a Library fraction of 0.00037 and a Raw reads of 50.
As to CQRIGRRNYS, under “IRAK4 selection pulldown (-)”, the Library fraction turned out to be 0.0001 and the Raw reads was found to be 14.
Where the note is “IRAK4 selection pulldown (+)”, SLLWKKRMYK showed a Library fraction of 0.0009 and a Raw reads of 95. For the setting “IRAK4 selection pulldown (-)”, the Library fraction was determined as 0.00027 and the Raw reads amounted to 36.
On to SMLWKRRICI, for which, under “IRAK4 selection pulldown (+)”, the Library fraction is given as 0.0002 and the Raw reads is reported as 17.
In the case of SQRYRNRNYQ, the Library fraction came to 0.0023 (IRAK4 selection pulldown (+)) and 0.00064 (IRAK4 selection pulldown (-)). The Raw reads by setting is: (IRAK4 selection pulldown (+)) 242; (IRAK4 selection pulldown (-)) 85.
With SIYWKRRRYK, where the note is “IRAK4 selection pulldown (+)”, the Library fraction came out at 0.0001 and the Raw reads is given as 11.
As for GPILYNRRLFV, under “IRAK4 selection pulldown (+)”, the Library fraction came out at 0.0002 and the Raw reads is given as 21. For the setting “IRAK4 selection pulldown (-)”, the Library fraction is on record as 0.00014 and the Raw reads stood at 19.
Where the note is “IRAK4 selection pulldown (-)”, SARWRRRNYS displayed a Library fraction of 0.00011 and a Raw reads of 15.
For GPVIYNRRIYC, the Library fraction came out at 0.0001 (IRAK4 selection pulldown (+)) and 0.00021 (IRAK4 selection pulldown (-)). Also, the Raw reads reads like this: (IRAK4 selection pulldown (+)) 11; (IRAK4 selection pulldown (-)) 28.
As to SLLYKRRIYK, the Library fraction runs as follows: (IRAK4 selection pulldown (+)) 0.044; (IRAK4 selection pulldown (-)) 0.026. Moreover, the Raw reads runs as follows: (IRAK4 selection pulldown (+)) 4704; (IRAK4 selection pulldown (-)) 3431.
On the same counts, the results for SILWKKRVWK are 0.016, 0.009, 1700 and 1218.
